Results from patent publication EP4289863A9 (Shanghai Huaota Biopharmaceutical Co., Ltd., dated 2024).

Columns and labels:
[1] = target: T1, human IL-36R (human, UniProt Q9HB29 20-575); assay: cell-based or functional assay
T1 sequence (looked up): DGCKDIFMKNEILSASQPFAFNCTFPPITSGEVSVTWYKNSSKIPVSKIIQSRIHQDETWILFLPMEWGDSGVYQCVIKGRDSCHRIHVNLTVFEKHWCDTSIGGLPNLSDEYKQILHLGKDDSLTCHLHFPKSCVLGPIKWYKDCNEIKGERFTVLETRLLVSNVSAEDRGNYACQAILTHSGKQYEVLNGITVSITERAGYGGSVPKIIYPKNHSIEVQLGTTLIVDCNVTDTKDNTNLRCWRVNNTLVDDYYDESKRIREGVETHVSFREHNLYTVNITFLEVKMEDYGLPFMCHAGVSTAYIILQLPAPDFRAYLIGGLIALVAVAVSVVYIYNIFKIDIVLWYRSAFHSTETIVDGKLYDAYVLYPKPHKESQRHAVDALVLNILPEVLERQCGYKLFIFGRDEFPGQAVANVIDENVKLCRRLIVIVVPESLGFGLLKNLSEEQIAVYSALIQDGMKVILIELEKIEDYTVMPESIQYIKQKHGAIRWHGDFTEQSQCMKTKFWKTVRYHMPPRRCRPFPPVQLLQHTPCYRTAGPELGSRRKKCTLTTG

[2] = target: T2, Human IL-17A (human, UniProt Q16552 24-155); assay: ELISA, human IL-17A coated at 1 µg/ml
T2 construct: also called IL-17A recombinant protein; IL-17A soluble recombinant protein
T2 sequence (looked up): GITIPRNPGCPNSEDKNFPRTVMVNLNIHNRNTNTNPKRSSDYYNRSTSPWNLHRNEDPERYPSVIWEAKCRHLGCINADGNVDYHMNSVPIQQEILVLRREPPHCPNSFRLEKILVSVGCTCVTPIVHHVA

[3] = target: T1, human IL-36R; assay: flow cytometry on CHO-K1-huIL-36R-5E10/2F10 cells
[4] = target: T3, IL36R (analyte of Table 17) (Homo sapiens (Human), UniProt Q9HB29 20-335); assay: SPR Biacore 8K, antibody captured on anti-human chip, antigen as analyte, 1:1 model
T3 sequence: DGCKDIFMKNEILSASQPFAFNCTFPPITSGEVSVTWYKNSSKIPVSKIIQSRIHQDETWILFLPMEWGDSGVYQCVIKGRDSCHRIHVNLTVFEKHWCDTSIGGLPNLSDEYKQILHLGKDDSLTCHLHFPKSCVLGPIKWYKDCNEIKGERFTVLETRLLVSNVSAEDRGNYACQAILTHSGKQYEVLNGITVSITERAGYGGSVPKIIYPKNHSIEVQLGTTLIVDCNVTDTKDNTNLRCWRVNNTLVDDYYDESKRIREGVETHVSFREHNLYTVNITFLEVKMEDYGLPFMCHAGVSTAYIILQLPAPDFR

[5] = target: T4, IL17A (analyte of Table 17) (Homo sapiens (Human), UniProt Q16552 24-155); assay: as above
T4 sequence: T2 sequence (looked up)

B1: IL17A-IL36R bispecific antibody 700005 (bispecific antibody)
heavy (part 1 of 2): QVQLVQSGSELKKPGASVKVSCKASEYIFTNYGMNWVKQAPGQGFEWMGWIDTNTGEPTYAQGFTGRFVFSLDTSVSTAYLQISSLKAEDTATYYCANYGWGYFDYWGQGTTVTVSS
heavy (part 2 of 2): GGGGSGGGGSGGGGSGGGGSQIVLTQSPGTLSLSPGERATLSCRASSSVSSSYLHWYQQKPGQAPRLWIYSTSSRATGIPDRFSGSGSGTDFTLTISRLEPEDFATYYCQQFQSSPLTFGQGTKLEIKGGGGSGGGGSGGGGSQVQLVQSGAEVKKPGASVKVSCKASGYTFTSSWMHWAKQAPGQGLEWIGEIHPNSAKTNYNQKFQGRVTMTRDTSISTAYMELSRLRSDDTAVYYCARVDYGKPWFAYWGQGTLVTVSS
light: DVVMTQTPPSLPVNPGEPASISCRSSQSLVHSNGYTYLHWYLQKPGQSPQLLIYKVSNHLSGVPDRFSGSGSGTDFTLKISWVEAEDVGVYFCSQSTHVPYTFGGGTKLEIKRTVAAPSVFIFPPSDEQLKSGTASVVCLLNNFYPREAKVQWKVDNALQSGNSQESVTEQDSKDSTYSLSSTLTLSKADYEKHKVYACEVTHQGLSSPVTKSFNRGEC
notes: also called 70005; not shown: heavy constant region CH1-CH2-CH3
[1]
  EC50 of inhibition of IL-6 content, NCI/ADR-RES cells stimulated with IL-36β: 0.45 nM
[2]
  EC50: 0.18 nM
[3]
  EC50: 0.747 nM
[4]
  Kd: 0.35 nM
  koff: 7.2e-05 s⁻¹
  kon: 205000 M⁻¹ s⁻¹
[5]
  Kd: 0.0061 nM
  koff: 4.13e-05 s⁻¹
  kon: 6.77e+06 M⁻¹ s⁻¹
